Laboratory results as given in paper PMC6097615 (Developmental cell, 2010).

B1: Fbx4G (Fbx4 GTPase domain, residues 162–387) (domain or fragment, human, UniProt Q9UKT5 162-387, looked up)
chain: GAVTSFLHSLIIQNEPRFAMFGPGLEELNTSLVLSLMSSEELCPTAGLPQRQIDGIGSGVNFQLNNQHKFNILILYSTTRKERDRAREEHTSAVNKMFSRHNEGDDQQGSRYSVIPQIQKVCEVVDGFIYVANAEAHKRHEWQDEFSHIMAMTDPAFGSSGRPLLVLSCISQGDVKRMPCFYLAHELHLNLLNHPWLVQDTEAETLTGFLNGIEWILEEVESKRAR
B2: TRF1_(TRFH) (TRFH domain of TRF1, residues 58–268), GST tag removed (domain or fragment, human, UniProt P54274 58-268, looked up)
chain: EEEEEDAGLVAEAEAVAAGWMLDFLCLSLCRAFRDGRSEDFRRTRNSAEAIIHGLSSLTACQLRTIYICQFLTRIAAGKTLDAQFENDERITPLESALMIWGSIEKEHDKLHEEIQNLIKIQAIAVCMENGNFKEAEEVFERIFGDPNSHMPFKSKLLMIISQKDTFHSFFQHFSYNHMMEKIKSYVNYVLSEKSSTFLMKAAAKVVESKR

What was measured:
[1] = target: B2; assay: crystal structure
crystal structure = target: the molecule itself; assay: crystal structure
[2] = target: B1; assay: pull-down

For B1, the “stoichiometry N” value [1] was 1 Fbx4G per TRF1_TRFH (printed as 2:2).

B2: binds (crystal structure).

B3: GST-TRF1_(TRFH) (domain or fragment, human, UniProt P54274 58-268, looked up)
chain: EEEEEDAGLVAEAEAVAAGWMLDFLCLSLCRAFRDGRSEDFRRTRNSAEAIIHGLSSLTACQLRTIYICQFLTRIAAGKTLDAQFENDERITPLESALMIWGSIEKEHDKLHEEIQNLIKIQAIAVCMENGNFKEAEEVFERIFGDPNSHMPFKSKLLMIISQKDTFHSFFQHFSYNHMMEKIKSYVNYVLSEKSSTFLMKAAAKVVESKR
B3: binds [2].
